Experimental data: paper PMC10107491, “Phosphorylation of S11 in PHR1 negatively controls its transcriptional activity”

Target: PHR1 S11A-His (UniProt Q94CL7 1-409, S11A)
Assay: EMSA; without SnRK1; 10 mM Tris-HCl pH 8.0, 100 mM NaCl, 10% glycerol, 2 mM DTT, 0.05% NP-40; 0.5 ug protein in 30 ul, 22 C, 30 min; 4.5% acrylamide gel, 0.5x TBE
Settings: protein: recombinant; tags: His (pET28b(+)); chain copies: 2; label: 32P 5' end label on sense strand (T4 PNK); blunt

Sequence of PHR1 S11A-His (Q94CL7 whole entry S11A): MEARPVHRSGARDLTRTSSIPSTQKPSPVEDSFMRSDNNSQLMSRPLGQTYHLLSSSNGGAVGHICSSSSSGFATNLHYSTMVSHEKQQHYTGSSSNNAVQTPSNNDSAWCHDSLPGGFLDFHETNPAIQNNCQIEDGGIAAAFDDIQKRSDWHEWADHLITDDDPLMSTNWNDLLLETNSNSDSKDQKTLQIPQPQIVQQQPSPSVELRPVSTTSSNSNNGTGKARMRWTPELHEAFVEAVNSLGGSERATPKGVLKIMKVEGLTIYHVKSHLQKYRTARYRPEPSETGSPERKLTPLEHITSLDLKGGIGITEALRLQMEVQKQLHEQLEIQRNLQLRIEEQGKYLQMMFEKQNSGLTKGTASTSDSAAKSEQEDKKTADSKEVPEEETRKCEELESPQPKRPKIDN

B1: AtIPS1 P1BS probe (dsDNA)
DNA 1: CAATTTTGGTAACGGCATATTCCATCGGATGATCCAAAATTCTCAAAA
DNA 2: TTTTGAGAATTTTGGATCATCCGATGGAATATGCCGTTACCAAAATTG
Does B1 bind?
Result: binds
